From publication PMC3795024, “A Structure-Guided Mutation in the Major Capsid Protein Retargets BK Polyomavirus” (PLoS Pathogens, 2013)

How the values were obtained:
SV40 VP1 = target: T1, SV40 VP1 (Betapolyomavirus macacae, UniProt P03087); assay: STD NMR; type: binding; details: 19-22 µM protein, 1 mM ligand, pH 7.5, 283 K, D2O
T1 construct: recombinant VP1 pentamer, detected with anti-poly-histidine antibody

[1] = target: BKPyV VP1 pentamer (30-300) T276A (BK polyomavirus (BKPyV)); assay: SEC; gel filtration of purified mutant pentamers; data not shown
[2] = target: BKPyV VP1 pentamer (amino acids 30-300 of BKPyV VP1, His-tag cleaved) (BK polyomavirus (BKPyV)); assay: crystal structure; sitting drop vapor diffusion at 20°C, 16–18% PEG 3,350, 0.1 M HEPES pH 7.5, 0.25 M LiCl, protein with 20 mM DTT; unliganded and soaked with 20 mM GD3 oligosaccharide
[3] = target: BKPyV VP1 pentamer (30-300) F75V (BK polyomavirus (BKPyV)); assay: SEC; gel filtration of purified mutant pentamers; data not shown
[4] = target: BKPyV VP1 pentamer (30-300) S274A (BK polyomavirus (BKPyV)); assay: as above
[5] = target: BKPyV VP1 pentamer (30-300) H138A (BK polyomavirus (BKPyV)); assay: as above
[6] = target: BKPyV VP1 pentamer (30-300) L62W (BK polyomavirus (BKPyV)); assay: as above
[7] = target: BKPyV VP1 pentamer (30-300) F75W (BK polyomavirus (BKPyV)); assay: as above
[8] = target: BKPyV VP1 pentamer (30-300) S274A/T276A (BK polyomavirus (BKPyV)); assay: as above

CC(=O)N[C@H]1[C@H](O[C@@H]2[C@H](O[C@]3(C(=O)O)C[C@H](O)[C@@H](NC(C)=O)[C@H]([C@H](O)[C@H](O)CO)O3)[C@@H](O)[C@H](O[C@H]3[C@H](O)[C@@H](O)C(O)O[C@@H]3CO)O[C@@H]2CO)O[C@H](CO)[C@H](O)[C@@H]1O[C@@H]1O[C@H](CO)[C@H](O)[C@H](O)[C@H]1O (stereo partly drawn) [GM1, GM1 oligosaccharide]
STD NMR (SV40 VP1): as efficient as for the SV40 VP1-GM1 pair, which was included for comparison

BKPyV VP1 pentamer (30-300) T276A (domain or fragment)
stoichiometry N [1]: 5

BKPyV VP1 pentamer (amino acids 30-300 of BKPyV VP1, His-tag cleaved) (domain or fragment)
stoichiometry N [2]: 5

BKPyV VP1 pentamer (30-300) F75V (domain or fragment)
stoichiometry N [3]: 5

BKPyV VP1 pentamer (30-300) S274A (domain or fragment)
stoichiometry N [4]: 5

BKPyV VP1 pentamer (30-300) H138A (domain or fragment)
stoichiometry N [5]: 5

BKPyV VP1 pentamer (30-300) L62W (domain or fragment)
stoichiometry N [6]: 5

BKPyV VP1 pentamer (30-300) F75W (domain or fragment)
stoichiometry N [7]: 5

BKPyV VP1 pentamer (30-300) S274A/T276A (domain or fragment)
stoichiometry N [8]: 5
